Test results as given in patent US20150344570A1 (published 2015).

Assays:
FcγRIIIa [1] = biological target: T1, FcγRIIIa (human, UniProt P08637 17-208); experiment: ratio of SPR KDs: KD of GpH7-G1d/GpL16-k0 divided by KD of this antibody
T1 construct: extracellular domain; also called FcgRIIIa; CD16A; not shown: His tag attached to the C terminus
Method: (§1) The prepared antibodies were compared for the FcγRIIIa-binding activity using, as an indicator, KD for FcγRIIIa that was determined according to the method described in Reference Example 2.
(§2) Analysis of interaction between objective antibody and the FcγR was carried out using Biacore T100 (GE Healthcare). HBS-EP+ (GE Healthcare) was used as the running buffer, and the measurement temperature was set to 25° C. Chips produced by immobilizing the antigen peptide by the amine coupling method to a Series S Sencor Chip CM5 (GE Healthcare), or alternatively, chips produced by allowing preliminarily biotinylated antigen peptides to interact with and immobilize onto a Series S Sensor Chip SA (certified) (GE Healthcare) were used. Antibodies of interest were captured onto an antigen peptide-immobilized chip, and allowed to interact to each FcγR diluted with running buffer. To regenerate and repeatedly use the chip, the antibodies captured on the chip were washed off by reacting 10 mM glycine-HCl, pH 1.5.
(§3) Specifically, to calculate association rate constant ka (L/mol/s) and dissociation rate constant kd (1/s), sensorgrams obtained by measurement were processed for global fitting by Biacore Evaluation Software using 1:1 Langmuir binding model and dissociation constant KD (mol/1) was calculated from the resulting values.

FcγRIIIa [2] = biological target: T1, FcγRIIIa; experiment: ratio of SPR KDs: KD of GpH7-A5/GpH7-B3/GpL16-k0 divided by KD of this antibody
Method: as §1, §2, §3

FcγRIIIa [3] = biological target: T1, FcγRIIIa; experiment: SPR (Biacore), antibody captured on antigen-peptide chip, FcγR as analyte; relative binding amount
Method: Specifically, GpH7-TA7 and GpH7-TA45 (SEQ ID NO: 32) resulting from the introduction of L234Y, G236W, and S298A into GpH7-A5 and GpH7-B3, respectively, were prepared according to the method described in Reference Example 1. […] These antibodies were compared for the FcγRIIIa binding according to the method described in Reference Example 2 (Table 10).
as §2

FcγRIIIa [4] = biological target: T1, FcγRIIIa; experiment: as above; remark: listed apart in the source
Method: GpH7-TA8 (SEQ ID NO: 33) and GpH7-B12 (SEQ ID NO: 12) resulting from the introduction of P329R into GpH7-TA7 and GpH7-B3, respectively, were prepared according to the method described in Reference Example 1.
as §2

[5] = biological target: T2, FcγRIIIa extracellular domain with C-terminal His tag (human, UniProt P08637 17-208); experiment: SPR (Biacore), ratio of KD for FcγRIIIa against GpH7-A5/GpH7-B3/GpL16-k0
T2 construct: extracellular domain; also called FcgRIIIa; 3a; not shown: His tag attached to the C terminus
Source text: Then, the present inventors introduced I332E into only one H chain, and assessed whether the Tm is elevated as compared to when I332E is introduced into both H chains. Expression vectors inserted with GpH7-A44 (SEQ ID NO: 49) and GpH7-B80 (SEQ ID NO: 50) resulting from the introduction of I332E into GpH7-A5 and GpH7-B3, respectively, were constructed. They were combined with GpH7-B3, GpH7-A5, and GpL16-k0 to express and prepare the following antibodies according to the method described in Reference Example 1: the heterodimerized antibodies GpH7-A5/GpH7-B80/GpL16-k0 and GpH7-A44/GpH7-B3/GpL16-k0 in which only one of the H chains was introduced with I332E, and the homodimerized antibody GpH7-A44/GpH7-B80/GpL16-k0 in which both of the H chains were introduced with I332E. […] Each antibody was assessed for the FcγRIIIa-binding activity according to the method described in Reference Example 2. In addition, the antibodies were compared for the Tm of CH2 domain by thermal shift assay according to the method described in Reference Example 5 (Tables 28 and 29).
as §2
The FcγR-binding activity of each antibody was assessed primarily using as an indicator the FcγR-binding activity and dissociation constant for FcγR.

T1 sequence (P08637 17-208): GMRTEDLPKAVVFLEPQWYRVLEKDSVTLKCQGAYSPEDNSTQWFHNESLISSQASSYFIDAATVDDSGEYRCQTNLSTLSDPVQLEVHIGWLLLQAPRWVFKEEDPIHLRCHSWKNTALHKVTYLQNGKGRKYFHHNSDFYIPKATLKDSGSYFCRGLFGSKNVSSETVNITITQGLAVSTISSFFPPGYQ
T2 sequence (P08637 17-208): as above

B1: GpH7-TA7/GpH7-B3/GpL16-k0 (antibody, human IgG1, kappa)
heavy 1: QVQLVQSGAEVKKPGASVTVSCKASGYTFTDYEMHWIRQPPGEGLEWIGAIDPKTGDTAYSESFQDRVTLTADKSTSTAYMELSSLTSEDTAVYYCTRFYSYTYWGQGTLVTVSSASTKGPSVFPLAPSSKSTSGGTAALGCLVKDYFPEPVTVSWNSGALTSGVHTFPAVLQSSGLYSLSSVVTVPSSSLGTQTYICNVNHKPSNTKVDKKVEPKSCDKTHTCPPCPAPEYLWGPSVFLFPPKPKDTLMISRTPEVTCVVVDVSHEDPEVKFNWYVDGVEVHNAKTKPREEQYNATYRVVSVLTVLHQDWLNGKEYKCKVSNKALPAPIEKTISKAKGQPREPQVYTLPPSRKELTKNQVSLTCLVKGFYPSDIAVEWESNGQPENNYKTTPPVLDSDGSFFLYSKLTVDKSRWQQGNVFSCSVMHEALHNRYTQKSLSLSP
heavy 2: not shown
light: DIVMTQSPLSLPVTPGEPASISCQASESLVHSNRNTYLHWYLQKPGQSPQLLIYKVSNRFSGVPDRFSGSGSGTDFTLKISRVEAEDVGVYYCSQNTHVPPTFGQGTKVEIERTVAAPSVFIFPPSDEQLKSGTASVVCLLNNFYPREAKVQWKVDNALQSGNSQESVTEQDSKDSTYSLSSTLTLSKADYEKHKVYACEVTHQGLSSPVTKSFNRGEC
notes: Anti-glypican-3 IgG1 heterodimer; L234Y/G236W/S298A in H1 only
KD ratio 1 (FcγRIIIa [1]): 3.8 fold | KD ratio 2 (FcγRIIIa [2]): 5.1 fold | FcγR BINDING ACTIVITY (relative FcγRIIIa binding) (FcγRIIIa [3]): 210 relative, GpH7-A5/GpH7-B3/GpL16-k0 = 100 | FcγRIIIa BINDING ACTIVITY (relative) (FcγRIIIa [4]): 210 relative, GpH7-A5/GpH7-B3/GpL16-k0 = 100

B2: GpH7-A5/GpH7-B3/GpL16-k0 (antibody, human IgG1, kappa)
heavy 1: not shown
heavy 2: not shown
light: DIVMTQSPLSLPVTPGEPASISCQASESLVHSNRNTYLHWYLQKPGQSPQLLIYKVSNRFSGVPDRFSGSGSGTDFTLKISRVEAEDVGVYYCSQNTHVPPTFGQGTKVEIERTVAAPSVFIFPPSDEQLKSGTASVVCLLNNFYPREAKVQWKVDNALQSGNSQESVTEQDSKDSTYSLSSTLTLSKADYEKHKVYACEVTHQGLSSPVTKSFNRGEC
notes: also called HeCon Ab; control heterodimerized antibody
KD ratio [5]: 1 fold (KD of GpH7-A5/GpH7-B3/GpL16-k0 divided by KD of the antibody)

B3: GpH7-A5/GpH7-B80/GpL16-k0 (antibody, human IgG1, kappa)
heavy 1: not shown
heavy 2: not shown
light: DIVMTQSPLSLPVTPGEPASISCQASESLVHSNRNTYLHWYLQKPGQSPQLLIYKVSNRFSGVPDRFSGSGSGTDFTLKISRVEAEDVGVYYCSQNTHVPPTFGQGTKVEIERTVAAPSVFIFPPSDEQLKSGTASVVCLLNNFYPREAKVQWKVDNALQSGNSQESVTEQDSKDSTYSLSSTLTLSKADYEKHKVYACEVTHQGLSSPVTKSFNRGEC
notes: Heterodimerized antibody with I332E in one H chain only
KD ratio [5]: 3.4 fold (KD of GpH7-A5/GpH7-B3/GpL16-k0 divided by KD of the antibody)

B4: GpH7-A44/GpH7-B3/GpL16-k0 (antibody, human IgG1, kappa)
heavy 1: QVQLVQSGAEVKKPGASVTVSCKASGYTFTDYEMHWIRQPPGEGLEWIGAIDPKTGDTAYSESFQDRVTLTADKSTSTAYMELSSLTSEDTAVYYCTRFYSYTYWGQGTLVTVSSASTKGPSVFPLAPSSKSTSGGTAALGCLVKDYFPEPVTVSWNSGALTSGVHTFPAVLQSSGLYSLSSVVTVPSSSLGTQTYICNVNHKPSNTKVDKKVEPKSCDKTHTCPPCPAPELLGGPSVFLFPPKPKDTLMISRTPEVTCVVVDVSHEDPEVKFNWYVDGVEVHNAKTKPREEQYNSTYRVVSVLTVLHQDWLNGKEYKCKVSNKALPAPEEKTISKAKGQPREPQVYTLPPSRKELTKNQVSLTCLVKGFYPSDIAVEWESNGQPENNYKTTPPVLDSDGSFFLYSKLTVDKSRWQQGNVFSCSVMHEALHNRYTQKSLSLSP
heavy 2: not shown
light: DIVMTQSPLSLPVTPGEPASISCQASESLVHSNRNTYLHWYLQKPGQSPQLLIYKVSNRFSGVPDRFSGSGSGTDFTLKISRVEAEDVGVYYCSQNTHVPPTFGQGTKVEIERTVAAPSVFIFPPSDEQLKSGTASVVCLLNNFYPREAKVQWKVDNALQSGNSQESVTEQDSKDSTYSLSSTLTLSKADYEKHKVYACEVTHQGLSSPVTKSFNRGEC
notes: as for B3
KD ratio [5]: 4.4 fold (KD of GpH7-A5/GpH7-B3/GpL16-k0 divided by KD of the antibody)
